Measured values from the supplement of paper PMC7877785.
± gives the uncertainty stated by the source.

Assay: self-splicing fitness, log relative to wild type (ln ratio); higher = more splicing; Tetrahymena group I intron in knt gene, E. coli kanamycin selection, DiMSum; sequences stand for … in CUCUCU…GGAGGGAAAAGUUAUCAGGCAUGCACCUGGUAGCUAGUCUUUAAACCAAUAGAUUGCAUCGGUUUAAAAGGCAAGACCGUCAAAUUGCGGGAAAGGGGUCAACAGCCGUUCAGUACCAAGUCUCAGGGGAAACUUUGAGAUGGCCUUGCAAAGGGUAUGGUAAUAAGCUGACGGACAUGGUCCUAACCACGCAGCCAAGUCCUAAGUCAACAGAUCUUCUGUUGAUAUGGAUGCAGUUCACAGACUAAAUGUCGGUCGGGGAAGAUGUAUUCUUCUCAUAAGAUAUAGUCGGACCUCUCCUUAAUGGGAGCUAGCGGAUGAAGUGAUGCAACACUGGAGCCGCUGGGAACUAAUUUGUAUGCGAAAGUAUAUUGAUUAGUUUUGGAGUACUCGUGGUCG
Procedure, shortened: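 Fitness was computed with DiMSum as the error-weighted combination of replicate fold changes, kanamycin versus none, each normalised to wild type. The library randomised all eight intron nucleotides of the P1ex region, with the intron placed in the knt kanamycin-resistance gene on pET-22b(+) in E. coli BL21(DE3). Six replicate transformations were grown overnight at 37°C or 30°C on LB agar with or without 25 μg/mL kanamycin, plus 100 μg/mL carbenicillin, 50 μM IPTG and 0.2% rhamnose. Pooled colonies were amplicon-sequenced on an Illumina HiSeq 2500.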

Sequence | self-splicing fitness (ln) (30 °C) | self-splicing fitness (ln) (37 °C)
GAUCAGCAAUAUUACGCUAC | -3.38 ± 0.48 | -1.62 ± 0.29
GUCCAGCAAUAUUACGGUGU | -0.42 ± 0.066 | 0.833 ± 0.081
AUCCAGCAAUAUUACGGUAG | -3.97 ± 0.2 | -2.6 ± 0.15
UCCAAGCAAUAUUACGUACU | -3.94 ± 0.39 | -2.54 ± 0.24
GCGAAGCAAUAUUACGUCUU | -2.56 ± 0.15 | -2.06 ± 0.13
AACAAGCAAUAUUACGUUAG | -4.21 ± 0.22 | -3.26 ± 0.24
GGAGAGCAAUAUUACGGUGC | -3.03 ± 0.12 | -1.57 ± 0.11
AGGAAGCAAUAUUACGACGC | -0.0969 ± 0.13 | -0.574 ± 0.14
CAACAGCAAUAUUACGACUG | -0.232 ± 0.052 | 0.0876 ± 0.072
GUGCAGCAAUAUUACGGCGG | -1.98 ± 0.11 | -1.1 ± 0.13
UGAUAGCAAUAUUACGUAGG | -1.66 ± 0.16 | -0.583 ± 0.16
AUCAAGCAAUAUUACGGCCU | -0.508 ± 0.05 | 0.15 ± 0.066
UGGGAGCAAUAUUACGAAUU |  | -2.63 ± 0.28
GCCAAGCAAUAUUACGUGUC | -1.62 ± 0.06 | -0.848 ± 0.075
GUUAAGCAAUAUUACGGUUC | -1.6 ± 0.081 | -0.156 ± 0.12
GAAAAGCAAUAUUACGCUGG | -2.57 ± 0.2 | -1.24 ± 0.25
UUGGAGCAAUAUUACGAUUA | -0.16 ± 0.41 | -1.3 ± 0.39
UCUUAGCAAUAUUACGUCUA | -3.59 ± 0.31 | -2.19 ± 0.2
UGAUAGCAAUAUUACGACCG | 0.139 ± 0.13 | 0.451 ± 0.17
GAGUAGCAAUAUUACGGGGG |  | -3.08 ± 0.35
CGACAGCAAUAUUACGAUCU | -0.335 ± 0.1 | 0.552 ± 0.094
GAUGAGCAAUAUUACGAGAC | -2.67 ± 0.25 | -1.97 ± 0.3
AGUCAGCAAUAUUACGGCGU | 0.0847 ± 0.073 | 0.74 ± 0.096
GCUGAGCAAUAUUACGGUUU | -1.86 ± 0.075 | -1.25 ± 0.095
CACUAGCAAUAUUACGUAGU | -3.45 ± 0.14 | -2.92 ± 0.18
UGGCAGCAAUAUUACGCUAC | -3.85 ± 0.35 | 

Sequence | self-splicing fitness (ln) (30 °C) | self-splicing fitness (ln) (37 °C)
UUAAAGCAAUAUUACGUUUU | -3.84 ± 0.2 | -2.27 ± 0.18
GAGUAGCAAUAUUACGAUAU | -2.42 ± 0.1 | -1.51 ± 0.14
CAAUAGCAAUAUUACGUUAG | -1.44 ± 0.057 | -0.481 ± 0.074
CUACAGCAAUAUUACGCAGA | -3.97 ± 0.28 | -3.07 ± 0.22
CUAGAGCAAUAUUACGAAAG | -0.33 ± 0.092 | 0.557 ± 0.12
UUGCAGCAAUAUUACGGCUC | -0.757 ± 0.094 | -0.29 ± 0.14
CCCGAGCAAUAUUACGCACA | -2.87 ± 0.27 | -1.68 ± 0.32
ACUUAGCAAUAUUACGAGAG | -2.21 ± 0.12 | -0.741 ± 0.11
CGGUAGCAAUAUUACGUUAC | -3.32 ± 0.36 | -2.09 ± 0.31
ACUCAGCAAUAUUACGUUCG | -0.678 ± 0.086 | -0.331 ± 0.11
GUAGAGCAAUAUUACGUAGC | -1.16 ± 0.19 | 
AGAGAGCAAUAUUACGUGUG | -3.84 ± 0.16 | -3.07 ± 0.24
AGACAGCAAUAUUACGAAAA |  | -1.44 ± 0.29
AAAGAGCAAUAUUACGUGCC | -3.09 ± 0.21 | -2.35 ± 0.22
AGGUAGCAAUAUUACGACAU | 0 ± 0.009 | 
GCGGAGCAAUAUUACGGCAU | -1.88 ± 0.12 | -0.979 ± 0.13
GAGGAGCAAUAUUACGAAAG |  | -2.01 ± 0.33
CGUAAGCAAUAUUACGUGUU | -2.37 ± 0.1 | -3.63 ± 0.2
CGACAGCAAUAUUACGACCC | -1.31 ± 0.19 | 0.117 ± 0.23
CAAAAGCAAUAUUACGAUUU | -1.18 ± 0.061 | -0.732 ± 0.075
CGCCAGCAAUAUUACGGGCG |  | -2.94 ± 0.4
GCAGAGCAAUAUUACGACCG | -3.12 ± 0.46 | 
GAUAAGCAAUAUUACGUAGG | -3.01 ± 0.13 | -1.86 ± 0.15
CCCGAGCAAUAUUACGUAAA | -3.27 ± 0.15 | -2.94 ± 0.2
AAAAAGCAAUAUUACGCCAU | -2.87 ± 0.22 | -1.71 ± 0.24
